In IntAct's records for PubMed 10743655:

B1: Zinc finger protein CONSTANS (Arabidopsis thaliana (Mouse-ear cress)), Q39057 (parent)
chain: MLKQESNDIGSGENNRARPCDTCRSNACTVYCHADSAYLCMSCDAQVHSANRVASRHKRVRVCESCERAPAAFLCEADDASLCTACDSEVHSANPLARRHQRVPILPISGNSFSSMTTTHHQSEKTMTDPEKRLVVDQEEGEEGDKDAKEVASWLFPNSDKNNNNQNNGLLFSDEYLNLVDYNSSMDYKFTGEYSQHQQNCSVPQTSYGGDRVVPLKLEESRGHQCHNQQNFQFNIKYGSSGTHYNDNGSINHNAYISSMETGVVPESTACVTTASHPRTPKGTVEQQPDPASQMITVTQLSPMDREARVLRYREKRKTRKFEKTIRYASRKAYAEIRPRVNGRFAKREIEAEEQGFNTMLMYNTGYGIVPSF
partner: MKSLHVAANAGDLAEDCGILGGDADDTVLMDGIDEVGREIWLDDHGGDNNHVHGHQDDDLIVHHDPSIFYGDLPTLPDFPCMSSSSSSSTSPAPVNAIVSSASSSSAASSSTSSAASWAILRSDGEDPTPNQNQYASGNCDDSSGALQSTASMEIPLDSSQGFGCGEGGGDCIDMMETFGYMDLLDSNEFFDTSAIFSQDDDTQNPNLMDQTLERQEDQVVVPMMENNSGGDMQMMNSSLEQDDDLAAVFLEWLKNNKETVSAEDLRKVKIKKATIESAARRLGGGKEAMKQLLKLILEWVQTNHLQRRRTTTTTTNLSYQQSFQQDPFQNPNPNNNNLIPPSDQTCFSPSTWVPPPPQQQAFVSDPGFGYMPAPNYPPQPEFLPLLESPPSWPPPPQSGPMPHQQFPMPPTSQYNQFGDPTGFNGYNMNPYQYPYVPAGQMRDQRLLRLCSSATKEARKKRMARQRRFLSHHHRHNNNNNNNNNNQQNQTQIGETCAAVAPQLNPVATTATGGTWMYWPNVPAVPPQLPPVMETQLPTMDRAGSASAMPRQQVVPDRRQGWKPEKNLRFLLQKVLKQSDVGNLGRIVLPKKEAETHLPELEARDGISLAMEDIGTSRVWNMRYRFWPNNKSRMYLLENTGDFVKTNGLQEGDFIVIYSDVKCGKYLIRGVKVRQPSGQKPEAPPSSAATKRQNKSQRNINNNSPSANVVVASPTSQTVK

Variants of: B1
Conditions: with abi3_arath ABI3, Q01593

Variant	effect of a mutation on the interaction
P339L	decreasing interaction
R340Q	decreasing interaction strength
